According to patent publication US12527846B2, “Immunodominant proteins and fragments in multiple sclerosis” (UNIVERSITÄT ZÜRICH, priority 2018, dated 2026):

B1: RASGRP2: RASGRP2 peptide pools (15mer-overlapping peptides, SEQ ID NOs 38-98, 9 pools) or whole purified RASGRP2 protein (Origene) (protein, listed as Homo sapiens)
chain: AAAAARPAGGSARRWGRPGRCGLLAAGPKRVRSEPGGRLPERSLGPAHPAPAAMAGTLDLDKGCTVEELLRGCIEAFDDSGKVRDPQLVRMFLMMHPWYIPSSQLAAKLLHIYQQSRKDNSNSLQVKTCHLVRYWISAFPAEFDLNPELAEQIKELKALLDQEGNRRHSSLIDIDSVPTYKWKRQVTQRNPVGQKKRKMSLLFDHLEPMELAEHLTYLEYRSFCKILFQDYHSFVTHGCTVDNPVLERFISLFNSVSQWVQLMILSKPTAPQRALVITHFVHVAEKLLQLQNFNTLMAVVGGLSHSSISRLKETHSHVSPETIKLWEGLTELVTATGNYGNYRRRLAACVGFRFPILGVHLKDLVALQLALPDWLDPARTRLNGAKMKQLFSILEELAMVTSLRPPVQANPDLLSLLTVSLDQYQTEDELYQLSLQREPRSKSSPTSPTSCTPPPRPPVLEEWTSAAKPKLDQALVVEHIEKMVESVFRNFDVDGDGHISQEEFQIIRGNFPYLSAFGDLDQNQDGCISREEMVSYFLRSSSVLGGRMGFVHNFQESNSLRPVACRHCKALILGIYKQGLKCRACGVNCHKQCKDRLSVECRRRAQSVSLEGSAPSPSPMHSHHHRAFSFSLPRPGRRGSRPPEIREEEVQTVEDGVFDIHL
B2: GDP L-fucose synthase (protein, listed as Homo sapiens)
chain: MGEPQGSMRILVTGGSGLVGKAIQKVVADGAGLPGEDWVFVSSKDADLTDTAQTRALFEKVQPTHVIHLAAMVGGLFRNIKYNLDFWRKNVHMNDNVLHSAFEVGARKVVSCLSTCIFPDKTTYPIDETMIHNGPPHNSNFGYSYAKRMIDVQNRAYFQQYGCTFTAVIPTNVFGPHDNFNIEDGHVLPGLIHKVHLAKSSGSALTVWGTGNPRRQFIYSLDLAQLFIWVLREYNEVEPIILSVGEEDEVSIKEAAEAVVEAMDFHGEVTFDTTKSDGQFKKTASNSKLRTYLPDFRFTPFKQAVKETCAWFTDNYEQARK
notes: whole protein 1-321, GenBank AAH93061.1 or UniProtKB/Swiss-Prot Q13630

Assays:
[1] = tested on: CD45RA-depleted PBMCs of natalizumab-treated MS patients; test: RASGRP2 reactivity of peripheral blood-derived memory T cells (thymidine incorporation); type: cell-based, human; details: n=8 natalizumab-treated MS patients; peptide pools 10 μM or whole protein 0.3 μg/ml, day 7
Protocol: In order to test reactivity to RASGRP2 in peripheral blood-derived memory T cells, cryopreserved PBMCs (1×10^8 cells) of natalizumab-treated MS patients (NAT; n=8) were thawed and afterwards depleted for CD45RA-expressing cells using magnetic cell sorting (Miltenyi). 2×10^8 CD45RA-depleted PBMCs were seeded per well (10-15 replicate wells per condition) in X-Vivo medium and were either treated with vehicle (DMSO), with CD2/CD3/CD28 beads or pulsed with RASGRP2 peptide pools (final concentration of pool 10 μM) or whole purified RASGRP2 protein (Origene; 0.3 μg/ml). The 15mer-overlapping peptides covering the whole RASGRP2 protein (SEQ ID NO:s 38-98) were organized in 9 peptide pools with 7 peptides per pool covering the sequence of RASGRP2 from N- (pool 1) to C-terminus (pool 9). Thymidine incorporation assay was used to measure proliferation responses to RASGRP2. At day 7 the cells were pulsed with 1 μCi of methyl-3H-thymidine per well (Hartmann Analytic) and harvested after 15 h on a membrane (Tomtec). Incorporation was measured by p-scintillation counting (Wallac 1450, PerkinElmer). The results are shown as dots (mean±SEM). Stimulatory index (SI) was calculated as ratio of peptide or protein stimulation vs. vehicle control. SI values>2 were considered as positive (FIG. 10).

[2] = tested on: CSF-infiltrating CD4+ T cells; test: Recognition of GDP-L-fucose synthase peptides by PHA-expanded CSF-infiltrating CD4+ T cells from 31 CIS/MS patients; type: cell-based, human; details: three-cluster k-means on patient scores
Protocol: In order to find out if specific recognition of GDP-L-fucose synthase occurs in CSF-infiltrating CD4+ T cells in patients with different forms of MS (the majority CIS and RRMS), a new protocol was developed to expand fresh CSF-infiltrating CD4+ T cells to high numbers in a single round to minimize variations in the original T cell repertoire. Resting PHA-expanded CSF-infiltrating CD4+ T cells, T cells that are also derived from the CNS compartment, from 31 CIS/MS patients were tested in quadruplicate with the 62 overlapping GDP-L-fucose synthase peptides presented by autologous irradiated PBMCs, as well as with the seven myelin peptides, CEF peptide pool and control beads. All stimulatory indices (Sls; except control beads) were pooled and SI values less than one were treated as having unit value. Cluster k-means analysis was performed to determine the optimal cut-off to differentiate responsive SI values from nonresponsive in this patient population. […] Subsequently, for each patient, all peptides having a median SI (of the quadruplicate wells) greater than 1.455 were identified as positive responses.
Next, patient scores were constructed by calculating the sum of each responsive peptide median SI, weighted by the number of total patients that responded to that peptide. […]
Proliferation was measured 72 h after stimulation by 3H-thymidine (Hartmann Analytic, Braunschweig, Germany) incorporation in a scintillation counter (Wallac 1450, PerkinElmer, Rodgau-Jurgesheim, Germany). The stimulatory index (SI) was calculated as follows: SI=Median (replicates cpm peptide)/Median (replicates cpm without peptide). Proliferation was also measured using a Click-iT™ EdU Flow Cytometry Assay Kit (APC, Molecular Probes, Invitrogen) following manufacturer's instructions. Cells were stained with the following antibodies anti-CD3 (PE-Cy-7, e-Bioscience, San Diego, CA) and anti-TRBV-21 (FITC, Beckman Coulter, Brea, CA) and analyzed by flow cytometry.

Molecule	donors responding (SI values>2 positive) [1]	patients characterized as high responders [2] [%]	patients characterized as moderate responders [2] [%]	patients characterized as nonresponders [2] [%]
B1	All 8 donors responded			
B2		19.35	19.35	61.3
